Laboratory results reported in patent US20250313641A1 (Amgen, published 2025).
Residue numbers refer to the chain shown, from its start. In names and notes the source's numbering stands.

Tests used:
[1] = target: T1, human IL-2 receptor (IL-2R) on human PBMC subsets (human, UniProt P14784 27-551; P31785 23-369); experiment: Flow cytometry on human PBMCs gated on CD4+ T-cells; detection with goat F(ab')2 anti-human IgG-PE; gMFI as fold over background
T1 construct: Endogenous receptor on primary human CD4+ T cells, T-regs, CD8+ T cells and NK cells; also called IL-2Rβγ
T1 sequence 1: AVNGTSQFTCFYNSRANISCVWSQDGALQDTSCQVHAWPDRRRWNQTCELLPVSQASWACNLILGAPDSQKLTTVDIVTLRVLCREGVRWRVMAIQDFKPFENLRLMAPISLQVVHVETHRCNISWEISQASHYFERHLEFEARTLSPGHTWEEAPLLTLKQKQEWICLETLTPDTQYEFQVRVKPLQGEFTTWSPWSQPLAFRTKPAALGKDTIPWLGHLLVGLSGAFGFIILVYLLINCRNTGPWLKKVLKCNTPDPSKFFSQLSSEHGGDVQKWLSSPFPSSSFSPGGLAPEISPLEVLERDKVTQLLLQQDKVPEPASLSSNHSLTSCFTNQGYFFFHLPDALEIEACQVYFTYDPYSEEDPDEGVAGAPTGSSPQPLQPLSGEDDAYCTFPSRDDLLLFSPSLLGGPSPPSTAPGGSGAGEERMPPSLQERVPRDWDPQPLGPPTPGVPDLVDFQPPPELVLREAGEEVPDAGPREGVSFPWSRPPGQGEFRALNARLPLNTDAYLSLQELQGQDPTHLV
T1 sequence 2: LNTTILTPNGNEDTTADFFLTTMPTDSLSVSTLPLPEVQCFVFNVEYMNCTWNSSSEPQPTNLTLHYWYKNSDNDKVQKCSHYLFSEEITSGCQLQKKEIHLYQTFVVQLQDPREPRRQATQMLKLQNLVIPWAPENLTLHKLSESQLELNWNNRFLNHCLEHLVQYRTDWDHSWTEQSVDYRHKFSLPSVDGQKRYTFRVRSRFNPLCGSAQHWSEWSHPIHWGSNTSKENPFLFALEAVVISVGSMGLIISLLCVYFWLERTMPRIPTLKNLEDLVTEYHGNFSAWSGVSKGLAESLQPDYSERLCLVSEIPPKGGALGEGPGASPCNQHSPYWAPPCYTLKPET
Experimental: (§1) All washes and dilutions of cells, antibodies, and reagents were performed using flow buffer (1×PBS, 1% BSA, 0.1% NaN3, pH 7.4). All incubations were performed at 4° C. or on ice. Freshly thawed PBMCs were seeded at 100,000 cells/well in a 96-well round bottom plate (Corning) and incubated for 30 minutes with serially diluted test articles in a total volume of 50 μL. Cells were washed twice with 200 μL flow buffer and subsequently stained with a 0.625 μg/mL Goat F (ab′) 2 Anti-Human IgG-PE (Southern Biotech) secondary detection antibody. Fluorescently conjugated anti-CD3 (OKT3), CD4 (OKT4), CD8 (RPA-T8), CD25 (M-A251), CD127 (A019D5), and CD56 (HCD56) antibodies (BioLegend) were also included at 1:20 dilution to enable the characterization of T-cell and NK cell populations. Following a 30-minute incubation, and 2 more washes, the cells were resuspended in a final volume of 120 μL of flow buffer containing 7-AAD viability dye. The cells were analyzed on a BD FACSCelesta™, maximum events were collected, and geometric mean fluorescence intensity was plotted as a fold-over-background (cells incubated with secondary detection antibody and cell lineage marker stains only).
(§2) Cell binding was determined by flow cytometry and reported as geometric mean fluorescent intensity (gMFI) over the gMFI of cells stained only with secondary detection antibody.

[2] = target: T1, human IL-2 receptor (IL-2R) on human …; experiment: cell-based or functional assay
[3] = target: T2, cynomolgus monkey IL-2 receptor (IL-2R) on cyno PBMC subsets (cynomolgus monkey, UniProt Q38J85 27-551; A0A2K5VGJ6 23-369); experiment: cell-based or functional assay
T2 sequence (looked up) 1: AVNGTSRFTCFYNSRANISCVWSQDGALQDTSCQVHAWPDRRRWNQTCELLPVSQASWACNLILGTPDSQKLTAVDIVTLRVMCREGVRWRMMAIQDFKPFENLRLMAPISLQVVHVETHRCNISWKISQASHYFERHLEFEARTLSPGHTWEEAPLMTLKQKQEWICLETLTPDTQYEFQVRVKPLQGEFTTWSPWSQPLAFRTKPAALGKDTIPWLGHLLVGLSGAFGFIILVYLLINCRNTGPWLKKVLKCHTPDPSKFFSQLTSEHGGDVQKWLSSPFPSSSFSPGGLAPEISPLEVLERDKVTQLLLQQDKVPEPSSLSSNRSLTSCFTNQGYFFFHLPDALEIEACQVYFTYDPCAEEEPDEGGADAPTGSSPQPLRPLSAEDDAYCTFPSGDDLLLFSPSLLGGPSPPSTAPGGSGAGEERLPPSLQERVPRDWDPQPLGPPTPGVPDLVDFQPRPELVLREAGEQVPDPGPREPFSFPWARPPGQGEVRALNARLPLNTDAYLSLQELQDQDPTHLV
T2 sequence (looked up) 2: T1 sequence 2 with T14A, A16T, T22S, H141R, T228S, A326P

[4] = target: T2, cynomolgus monkey IL-2 receptor (IL-2R) …; experiment: Flow cytometry on cynomolgus PBMCs gated on CD3-CD159a+ NK cells; detection with anti-human IgG-PE; gMFI as fold over background
[5] = target: T1, human IL-2 receptor (IL-2R) on human …; experiment: cell-based or functional assay; remark: listed apart in the source
[6] = target: T2, cynomolgus monkey IL-2 receptor (IL-2R) …; experiment: cell-based or functional assay; remark: listed apart in the source
[7] = target: T1, human IL-2 receptor (IL-2R) on human …; experiment: Flow cytometry on human PBMCs gated on CD3-CD56+ NK cells; detection with goat F(ab')2 anti-human IgG-PE; gMFI as fold over background
Experimental: as §1, §2

[8] = target: T2, cynomolgus monkey IL-2 receptor (IL-2R) …; experiment: Flow cytometry on cynomolgus PBMCs gated on CD4+CD25+CD127lo T-regs; detection with anti-human IgG-PE; gMFI as fold over background
[9] = target: T1, human IL-2 receptor (IL-2R) on human …; experiment: Flow cytometry on human PBMCs gated on CD8+ T-cells; detection with goat F(ab')2 anti-human IgG-PE; gMFI as fold over background
Experimental: as §1, §2

[10] = target: T1, human IL-2 receptor (IL-2R) on human …; experiment: cell-based or functional assay; remark: listed apart in the source
[11] = target: T1, human IL-2 receptor (IL-2R) on human …; experiment: cell-based or functional assay; remark: listed apart in the source
[12] = target: T1, human IL-2 receptor (IL-2R) on human …; experiment: Flow cytometry on human PBMCs gated on CD4+CD25+CD127lo T-regs; detection with goat F(ab')2 anti-human IgG-PE; gMFI as fold over background
Experimental: as §1, §2

B1: HCAb1 (bispecific antibody, IgG1)
heavy 1: not shown
heavy 2: QVQLVESGGGLVKPGGSLRLSCAASGFTFSDYYMSWIRQAPGKGLEWVSYISSSGSTIYYADSVKGRFTISRDNAKNSLYLQMNSLRAEDTAVYYCARGDAVSITGDYRGQGTLVTVSSGGGGDKTHTCPPCPAPELLGGPSVFLFPPKPKDTLMISRTPEVTCVVVDVSHEDPEVKFNWYVDGVEVHNAKTKPCEEQYGSTYRCVSVLTVLHQDWLNGKEYKCKVSNKALPAPIEKTISKAKGQPREPQVYTLPPSRKEMTKNQVSLTCLVKGFYPSDIAVEWESNGQPENNYKTTPPVLKSDGSFFLYSKLTVDKSRWQQGNVFSCSVMHEALHNHYTQKSLSLSPGK
notes: Heavy-chain antibody without light chains, made of two different heavy chains; The IgG1-derived Fc carries SEFL2.2 mutations (R292C, N297G, V302C) and charge-pair substitutions; also called anti-IL2RBG heavy-chain antibody
EC50 (read off the curve) [1]: ~30 nM | Ki67 (Human) EC50 [nM], CD4^+ T cells [2]: 13.2 nM | Ki67 (Human) EC50 [nM], CD8^+ T cells [2]: 5.17 nM | Ki67 (Human) EC50 [nM], NK cells [2]: 7.34 nM | Ki67 (Human) EC50 [nM], T-regs [2]: 0.81 nM | pSTAT5 (Cyno) EC50 [nM], CD4^+ T-cell [3]: 7.72 nM | pSTAT5 (Cyno) EC50 [nM], CD4^+CD25^+ T-regs [3]: 5.37 nM | pSTAT5 (Cyno) EC50 [nM], CD8^+ T-cell [3]: 3.31 nM | EC50 (read off the curve) [4]: ~2 nM | pSTAT5 (Human) EC50 [nM], CD4^+ T-cell [5]: 34.9 nM | pSTAT5 (Human) EC50 [nM], CD4^+CD25^+ T-regs [5]: 10.7 nM | pSTAT5 (Human) EC50 [nM], CD8^+ T-cell [5]: 21.5 nM | Ki67 (Cyno) EC50 [nM], CD4^+ T cells [6]: 14.7 nM | Ki67 (Cyno) EC50 [nM], CD8^+ T cells [6]: 14.8 nM | Ki67 (Cyno) EC50 [nM], NK cells [6]: 5.97 nM | Ki67 (Cyno) EC50 [nM], T-regs [6]: 1.25 nM | EC50 (read off the curve) [7]: ~2 nM | EC50 (read off the curve) [8]: ~8 nM | EC50 (read off the curve) [9]: ~20 nM | Ki67 (Human) EC50 [nM], CD4^+ T-cell [10]: 23.7 nM | Ki67 (Human) EC50 [nM], CD4^+CD25^+ T-regs [10]: 9.26 nM | Ki67 (Human) EC50 [nM], CD8^+ T-cell [10]: 25.1 nM | pSTAT5 (Human) EC50 [nM], CD4^+ T cells [11]: 22.9 nM | pSTAT5 (Human) EC50 [nM], CD8^+ T cells [11]: 15.5 nM | pSTAT5 (Human) EC50 [nM], NK cells [11]: 8.77 nM | pSTAT5 (Human) EC50 [nM], T-regs [11]: 13.1 nM | EC50 (read off the curve) [12]: ~10 nM

B2: HCAb2 (bispecific antibody, human IgG4 S228P, F234A L235A)
heavy 1: QVQLQESSPGLVKPSETLSLTCTVSGGSISSSNWWSWVRQPPGKGLEWIGEISHSGSTNYNPSLKSRVTISVDKSKNQFSLRLSSVTAADTAVYFCGRGSWELTDAFDIRGQGTLVTVSSESKYGPPCPPCPAPEAAGGPSVFLFPPKPKDTLMISRTPEVTCVVVDVSQEDPEVQFNWYVDGVEVHNAKTKPREEQFNSTYRVVSVLTVLHQDWLNGKEYKCKVSNKGLPSSIEKTISKAKGQPREPQVYTLPPSQEEMTKNQVSLSCAVKGFYPSDIAVEWESNGQPENNYKTTPPVLDSDGSFFLVSRLTVDKSRWQEGNVFSCSVMHEALHNHYTQKSLSLSLGK
heavy 2: QVQLVESGGGLVKPGGSLRLSCAASGFTFSDYYMSWIRQAPGKGLEWVSYISSSGSTIYYADSVKGRFTISRDNAKNSLYLQMNSLRAEDTAVYYCARGDAVSITGDYRGQGTLVTVSSESKYGPPCPPCPAPEAAGGPSVFLFPPKPKDTLMISRTPEVTCVVVDVSQEDPEVQFNWYVDGVEVHNAKTKPREEQFNSTYRVVSVLTVLHQDWLNGKEYKCKVSNKGLPSSIEKTISKAKGQPREPQVYTLPPSQEEMTKNQVSLWCLVKGFYPSDIAVEWESNGQPENNYKTTPPVLDSDGSFFLYSRLTVDKSRWQEGNVFSCSVMHEALHNHYTQKSLSLSLGK
pSTAT5 (Cyno) EC50 [nM], CD4^+ T-cell [3]: 9.36 nM | pSTAT5 (Cyno) EC50 [nM], CD4^+CD25^+ T-regs [3]: 4.29 nM | pSTAT5 (Cyno) EC50 [nM], CD8^+ T-cell [3]: 3.13 nM | pSTAT5 (Human) EC50 [nM], CD4^+ T-cell [5]: 44.6 nM | pSTAT5 (Human) EC50 [nM], CD4^+CD25^+ T-regs [5]: 13.2 nM | pSTAT5 (Human) EC50 [nM], CD8^+ T-cell [5]: 24 nM | Ki67 (Human) EC50 [nM], CD4^+ T-cell [10]: 23.9 nM | Ki67 (Human) EC50 [nM], CD4^+CD25^+ T-regs [10]: 14.6 nM | Ki67 (Human) EC50 [nM], CD8^+ T-cell [10]: 36.5 nM
